Columns and labels:
[1] = biological target: Flagellin Sensing 2 receptor (FLS2) (Arabidopsis thaliana) (UniProt Q9FL28); assay: cell-based or functional assay
[2] = medial prefrontal cortex, anterior cingulate cortex, central nucleus of amygdala; cited from earlier work

Sequence of flg22 peptide (22 amino acid synthetic peptide that mimics the conserved N-terminal region of bacterial flagellin) (P21184 30-51): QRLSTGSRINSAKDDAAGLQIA
Sequence of UniProt Q9FL28 (Q9FL28 24-1173): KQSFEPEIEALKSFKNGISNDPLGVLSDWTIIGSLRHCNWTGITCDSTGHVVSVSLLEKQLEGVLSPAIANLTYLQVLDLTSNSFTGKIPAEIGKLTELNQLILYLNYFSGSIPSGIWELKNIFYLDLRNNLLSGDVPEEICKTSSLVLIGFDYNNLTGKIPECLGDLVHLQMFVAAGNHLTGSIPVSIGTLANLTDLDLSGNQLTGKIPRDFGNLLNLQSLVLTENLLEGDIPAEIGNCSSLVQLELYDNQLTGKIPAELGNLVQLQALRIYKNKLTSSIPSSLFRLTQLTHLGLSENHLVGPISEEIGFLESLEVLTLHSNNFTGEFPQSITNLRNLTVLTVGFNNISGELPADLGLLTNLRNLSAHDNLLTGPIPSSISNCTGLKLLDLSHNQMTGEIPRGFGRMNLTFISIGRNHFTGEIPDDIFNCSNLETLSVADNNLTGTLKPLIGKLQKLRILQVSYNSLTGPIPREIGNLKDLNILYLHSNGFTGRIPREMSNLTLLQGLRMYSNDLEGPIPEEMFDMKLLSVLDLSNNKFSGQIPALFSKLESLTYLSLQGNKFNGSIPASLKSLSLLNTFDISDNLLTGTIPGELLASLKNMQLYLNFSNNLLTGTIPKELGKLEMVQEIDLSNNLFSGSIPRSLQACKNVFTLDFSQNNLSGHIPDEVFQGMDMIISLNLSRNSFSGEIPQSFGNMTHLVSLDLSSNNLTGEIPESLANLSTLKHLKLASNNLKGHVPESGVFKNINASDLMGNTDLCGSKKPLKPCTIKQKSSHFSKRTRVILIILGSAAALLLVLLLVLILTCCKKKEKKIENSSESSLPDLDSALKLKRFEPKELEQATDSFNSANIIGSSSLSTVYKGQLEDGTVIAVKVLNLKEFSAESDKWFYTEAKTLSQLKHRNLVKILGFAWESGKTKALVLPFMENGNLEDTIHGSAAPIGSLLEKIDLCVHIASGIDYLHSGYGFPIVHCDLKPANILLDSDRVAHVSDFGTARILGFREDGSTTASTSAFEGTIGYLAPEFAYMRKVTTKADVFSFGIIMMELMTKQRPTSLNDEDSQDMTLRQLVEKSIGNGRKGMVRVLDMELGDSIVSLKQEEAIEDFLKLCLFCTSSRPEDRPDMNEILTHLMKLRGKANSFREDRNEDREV

flg22 peptide (22 amino acid synthetic peptide that mimics the conserved N-terminal region of bacterial flagellin)
stomatal closure assay; effect of flg22-loaded EVs compared with free flg22 peptide [1]: > 10 nM

CCN(CC)C(=O)[C@@H]1C=C2c3cccc4[nH]cc(c34)C[C@H]2N(C)C1 [LSD, Lysergic acid diethylamide]
increase in Fos-like immunoreactivity [2]: a five- to eight-fold increase

— patent publication US20240423923A1, “EXTRACELLULAR VESICLES FROM MICROALGAE, THEIR BIODISTRIBUTION UPON ADMINISTRATION, AND USES” (AGS THERAPEUTICS SAS, priority 2022, published 2024)
